Values belong to the binder of their own block, whether it stands above or below them.
Legend:
[1] = biological target: T1, Human CD93 recombinant protein (Sino Biological Inc, Catalog #12589-H08H) (human, UniProt Q9NPY3 22-580); experiment: summary table, column Octet (hCD93)
T1 construct: Biotinylated (EZ-LINK NHS-PEG4 biotin) in the BLI assays; also called hCD93; His-tagged human CD93
T1 sequence (looked up): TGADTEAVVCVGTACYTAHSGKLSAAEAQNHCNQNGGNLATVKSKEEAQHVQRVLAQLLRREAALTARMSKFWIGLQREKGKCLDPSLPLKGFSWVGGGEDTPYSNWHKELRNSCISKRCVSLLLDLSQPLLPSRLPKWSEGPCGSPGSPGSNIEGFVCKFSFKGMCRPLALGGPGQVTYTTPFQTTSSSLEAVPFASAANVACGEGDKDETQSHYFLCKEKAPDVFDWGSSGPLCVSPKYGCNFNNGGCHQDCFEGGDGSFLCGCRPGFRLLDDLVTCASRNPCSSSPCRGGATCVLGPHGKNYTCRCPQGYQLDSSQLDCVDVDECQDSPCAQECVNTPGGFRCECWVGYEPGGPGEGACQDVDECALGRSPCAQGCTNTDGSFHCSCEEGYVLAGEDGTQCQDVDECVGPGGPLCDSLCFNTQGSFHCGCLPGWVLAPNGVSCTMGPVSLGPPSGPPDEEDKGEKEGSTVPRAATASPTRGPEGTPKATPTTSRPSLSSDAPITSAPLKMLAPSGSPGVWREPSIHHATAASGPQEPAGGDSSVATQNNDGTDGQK

[2] = biological target: T1, Human CD93 recombinant protein (Sino …); experiment: summary table, column Octet (hCD93); 2 weeks at 40 C
Protocol: (§1) The binding affinity of anti-CD93 antibodies was determined with bio-layer interferometry using Octet QKe (Fortebio). […] Human CD93 recombinant protein (Sino Biological Inc, Catalog #12589-H08H) was biotinylated using EZ-LINK NHS-PEG4 biotin (Thermo Fisher Scientific). Streptavidin biosensors (Fortebio) were used to load biotinylated CD93 protein (300 seconds in 5 μg/ml). Baseline was stabilized for 60 seconds in 1×kinetics buffer (Fortebio) before anti-CD93 antibodies, at a serial dilution, were allowed to associate for 300 seconds with captured protein. Then the sensors were dissociated in 1× kinetics buffer for 600 seconds. […] (FIG. 41).
as §1, with “1× kinetics” for “1×kinetics”, “42).” for “41).”

[3] = biological target: T2, Human CD93 on cells (human CD93 expressing CHO cells; HUVEC, U937 and KG1a cells) (human, UniProt Q9NPY3 22-652); experiment: summary table, column FACS (KG1a cells); 2 weeks at 40 C
T2 construct: whole, on cells; also called hCD93 expressing CHO cells; hCD93 CHO cells
T2 sequence (looked up): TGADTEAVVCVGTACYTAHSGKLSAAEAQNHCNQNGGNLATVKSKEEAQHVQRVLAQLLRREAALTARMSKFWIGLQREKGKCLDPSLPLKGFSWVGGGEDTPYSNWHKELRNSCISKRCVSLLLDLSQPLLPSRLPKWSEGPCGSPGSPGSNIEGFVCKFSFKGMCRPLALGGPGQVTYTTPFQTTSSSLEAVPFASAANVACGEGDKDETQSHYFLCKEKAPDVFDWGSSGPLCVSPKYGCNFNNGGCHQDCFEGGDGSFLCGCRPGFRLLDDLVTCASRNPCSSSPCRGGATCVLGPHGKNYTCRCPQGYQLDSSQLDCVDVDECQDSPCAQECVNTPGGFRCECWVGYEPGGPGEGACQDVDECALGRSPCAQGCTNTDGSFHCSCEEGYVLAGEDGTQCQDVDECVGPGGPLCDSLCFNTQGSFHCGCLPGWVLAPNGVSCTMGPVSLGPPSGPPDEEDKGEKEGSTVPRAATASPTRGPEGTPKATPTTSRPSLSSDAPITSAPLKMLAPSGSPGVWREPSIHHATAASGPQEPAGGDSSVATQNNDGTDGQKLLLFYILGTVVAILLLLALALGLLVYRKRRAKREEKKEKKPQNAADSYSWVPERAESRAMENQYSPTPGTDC
Protocol: (§2) KG1a cells were detached by incubation with TrypLE reagents (Thermo Fisher), which preserves the integrity of CD93 on the cell surface. Then the cells were incubated with serial diluted anti-CD93 antibodies for 30 minutes at 4° C. After washing by FACS buffer, the cells were incubated with Alexa Fluor 647 conjugated anti-human IgG (Jackson ImmunoResearch) for 30 minutes in 4° C. After washing by FACS buffer twice, the samples were acquired in NovoCyte Flow Cytometer and analyzed by NovoExpress software.
as §2

[4] = biological target: T2, Human CD93 on cells (human CD93 …); experiment: summary table, column FACS (KG1a cells); 4 weeks at 40 C
Protocol: as §2, §2

[5] = biological target: T1, Human CD93 recombinant protein (Sino …); experiment: summary table, column Octet (hCD93); 4 weeks at 40 C
Protocol: as §1
as §1, with “1× kinetics” for “1×kinetics”, “42).” for “41).”

[6] = biological target: T2, Human CD93 on cells (human CD93 …); experiment: flow cytometry titration, KG1a cells
Protocol: as §2

[7] = biological target: T2, Human CD93 on cells (human CD93 …); experiment: flow cytometry titration, KG1a cells; antibody stored 4 weeks at 40 C
Protocol: as §2

[8] = biological target: T1, Human CD93 recombinant protein (Sino …); experiment: summary table, column ELISA (hCD93)
[9] = biological target: T2, Human CD93 on cells (human CD93 …); experiment: summary table, column FACS (CHO-hCD93 cells)

- Kd [1]: 0.472 nM
- Kd [2]: 0.495 nM
- EC50 [3]: 0.021 nM
- EC50 [4]: 0.019 nM
- Kd [5]: 0.487 nM
- EC50 [6]: 0.024 nM
- EC50 [7]: 0.019 nM
- EC50 [8]: 0.0427 nM
B1: h7F3 (humanized 7F3, VH3+VL3) (antibody, human IgG1, V domains shown)
VH: QVQLVQSGAEVKKPGASVKVSCKASGYTFTDYEMHWVRQAPGQGLEWMGGIDPETGDTAYNQNFKGRVTMTTDTSTSTAYMELRSLTSDDTAVYYCTNYGNLYYYAMDYWGQGTSVTVSS
VL: EIVLTQSPSSLSASVGDRVTITCRASSSVSSSYLHWYQQKPGKAPKLLIYSTSNLAFGVPSRFSGSGSGTSYTFTISSLQPEDIATYYCQQYSGYPLTFGSGTKLEIK
notes: also called humanized 7F3-hIgG1

- Kd [1]: 0.334 nM
- EC50 [9]: 0.59 nM
- EC50 [8]: 0.112 nM
B2: 16E4 (hybridoma) (antibody, IgG2a, V domains shown)
VH: QVQLQQPGAELVKPGASVKLSCKASGYTFTSYWMHWVKQRPGQGLEWIGEIDPSASYTYYNQKFKGKATLTVDKSSSTAYMQLSSLTSEDSAVYYCARSVYYGNKYFDVWGAGTTVTVSS
VL: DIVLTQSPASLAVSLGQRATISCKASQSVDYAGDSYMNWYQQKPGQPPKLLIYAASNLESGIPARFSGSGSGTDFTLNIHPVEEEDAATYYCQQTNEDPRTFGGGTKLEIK
notes: also called 16E4 mAb; 16E4 mIgG2a

- Kd [1]: 0.416 nM
- EC50 [9]: 0.388 nM
- Kd [2]: 0.0204 nM
- EC50 [3]: 0.113 nM
- EC50 [4]: 0.115 nM
- Kd [5]: 0.112 nM
- EC50 [6]: 0.131 nM
- EC50 [7]: 0.115 nM
- EC50 [8]: 0.033 nM
B3: h16E4 (humanized 16E4, VH4+VL6) (antibody, V domains shown)
VH: QVQLVQSGAEVKKPGASVKVSCKASGYTFTSYWMHWVRQAPGQGLEWMGEIDPSASYTYYNQKFKGRVTMTRDKSSSTVYMELSSLTSEDSAVYYCARSVYYGNKYFDVWGAGTTVTVSS
VL: DIQMTQSPSTLSASVGDRVTITCKASQSVDYAGDSYMNWYQQKPGKAPKLLIYAASNLESGVPSRFSGSGSGTEFTLTISSLQPDDFATYYCQQTNEDPRTFGGGTKLEIK
notes: Detected with anti-human IgG, so a human Fc

— US20230365705A1 (DYNAMICURE BIOTECHNOLOGY, published 2023)
